Assay results: US20200241008

T1: indicator molecule containing the cleavable sequence (GPQGIFGQ) with a terminal biotin group connected via a polyethylene glycol spacer/linker, intact
T1 chain: GPQGIFGQ

B1: MMP12 (Enzo) (protein)
chain: GPVWRKHYITYRINNYTPDMNREDVDYAIRKAFQVWSNVTPLKFSKINTGMADILVVFARGAHGDFHAFDGKGGILAHAFGPGSGIGGDAHFDEDEFWTTHSGGTNLFLTAVHEIGHSLGLGHSSDPKAVMFPTYKYVDINTFRLSADDIRGIQSLYG
B2: MMP7 (Enzo) (protein)
chain: YSLFPNSPKWTSKVVTYRIVSYTRDLPHITVDRLVSKALNMWGKEIPLHFRKVVWGTADIMIGFARGAHGDSYPFDGPGNTLAHAFAPGTGLGGDAHFDEDERWTDGSSLGINFLYAATHELGHSLGMGHSSDPNAVMYPTYGNGDPQNFKLSQDDIKGIQKLYGKRSNSRKK
B3: MMP1 (Enzo) (protein)
chain: FVLTEGNPRWEQTHLTYRIENYTPDLPRADVDHAIEKAFQLWSNVTPLTFTKVSEGQADIMISFVRGDHRDNSPFDGPGGNLAHAFQPGPGIGGDAHFDEDERWTNNFREYNLHRVAAHELGHSLGLSHSTDIGALMYPSYTFSGDVQLAQDDIDGIQAIYGRSQNPVQP
B4: MMP11 (Enzo) (protein)
chain: FVLSGGRWEKTDLTYRILRFPWQLVQEQVRQTMAEALKVWSDVTPLTFTEVHEGRADIMIDFARYWHGDDLPFDGPGGILAHAFFPKTHREGDVHFDYDETWTIGDDQGTDLLQVAAHEFGHVLGLQHTTAAKALMSAFYTFRYPLSLSPDDCRGVQHLYGQPWPTVTSRTPALG

Target: T1, indicator molecule containing the …

Protein	reader value at 0.5 µg/ml MMP (lateral flow) [reader units]
B1	1250
B2	373
B3	478
B4	280
